Drawing on paper PMC11606652, this text covers stoichiometry N for one substance.

As a reminder, the stoichiometry N is a count of units in the complex or per binding partner.

The target of this assay is Kluyveromyces marxianus GCN2 histidyl-tRNA synthetase-like (HRSL) domain, residues 996-1,511 (Kluyveromyces marxianus). Put plainly: SEC. On the technique in general: SEC sorts molecules by how far they enter the pores of the column.

Take “Kluyveromyces marxianus GCN2 histidyl-tRNA synthetase-like (HRSL) domain, residues 996-1,511 (domain or fragment)”: the stoichiometry N came to 2.
